Legend:
Experiment in all cases: ITC; MED25 ACID (200 or 250 µM, syringe) titrated into NS1 (20 µM, cell); 20 mM Tris pH 8.0, 200 mM NaCl, 1 mM TCEP, 25°C; one set of sites model
[1] = molecular target: NS1 E110A (human respiratory syncytial virus subgroup A, Long strain)
[2] = molecular target: NS1 Y125A (human respiratory syncytial virus subgroup A, Long strain)
[3] = molecular target: NS1 K112A (human respiratory syncytial virus subgroup A, Long strain)
[4] = molecular target: RSV NS1, full-length wild type (aa 1–139) (human respiratory syncytial virus subgroup A, Long strain)
[5] = molecular target: NS1 F56A (human respiratory syncytial virus subgroup A, Long strain)
[6] = molecular target: NS1 L133A (human respiratory syncytial virus subgroup A, Long strain)
[7] = molecular target: NS1 I54A (human respiratory syncytial virus subgroup A, Long strain)
[8] = molecular target: NS1 M122A (human respiratory syncytial virus subgroup A, Long strain)

B1: MED25 ACID (aa 389–543) (domain or fragment)
chain: LGGQQSVSNKLLAWSGVLEWQEKPKPASVDANTKLTRSLPCQVYVNHGENLKTEQWPQKLIMQLIPQQLLTTLGPLFRNSRMVQFHFTNKDLESLKGLYRIMGNGFAGCVHFPHTAPCEVRVLMLLYSSKKKIFMGLIPYDQSGFVNGIRQVITN
**Q.** What does the source list for B1?
**A.** Kd [1]: 1.54 µM; dH [1]: -32.2 kJ/mol; stoichiometry N [1]: 0.86; Kd [2]: 0.08 µM; dH [2]: -49.8 kJ/mol; stoichiometry N [2]: 0.53; Kd [3]: 0.079 µM; dH [3]: -44.8 kJ/mol; stoichiometry N [3]: 0.66; Kd [4]: 0.044 µM; dH [4]: -42.3 kJ/mol; stoichiometry N [4]: 0.73; Kd [5]: 0.198 µM; dH [5]: -34.7 kJ/mol; stoichiometry N [5]: 0.8; Kd [6]: 2.23 µM; dH [6]: -31.8 kJ/mol; stoichiometry N [6]: 0.44; Kd [7]: 0.045 µM; dH [7]: -44.8 kJ/mol; stoichiometry N [7]: 0.79; Kd [8]: 0.606 µM; dH [8]: -43.5 kJ/mol; stoichiometry N [8]: 0.71
